Test results published in patent US20240199762A1 (PHILOGEN S P A, published 2024).

T1: human FAP expressed on transduced cells (SKRC52-hFAP, HT-1080-hFAP) (human, UniProt Q12884 1-760)
T1 construct: whole, on cells; Also the target in SKRC52-hFAP tumor cryosections and in tumors of tumor-bearing mice; also called cell-expressed human FAP
T1 sequence (looked up): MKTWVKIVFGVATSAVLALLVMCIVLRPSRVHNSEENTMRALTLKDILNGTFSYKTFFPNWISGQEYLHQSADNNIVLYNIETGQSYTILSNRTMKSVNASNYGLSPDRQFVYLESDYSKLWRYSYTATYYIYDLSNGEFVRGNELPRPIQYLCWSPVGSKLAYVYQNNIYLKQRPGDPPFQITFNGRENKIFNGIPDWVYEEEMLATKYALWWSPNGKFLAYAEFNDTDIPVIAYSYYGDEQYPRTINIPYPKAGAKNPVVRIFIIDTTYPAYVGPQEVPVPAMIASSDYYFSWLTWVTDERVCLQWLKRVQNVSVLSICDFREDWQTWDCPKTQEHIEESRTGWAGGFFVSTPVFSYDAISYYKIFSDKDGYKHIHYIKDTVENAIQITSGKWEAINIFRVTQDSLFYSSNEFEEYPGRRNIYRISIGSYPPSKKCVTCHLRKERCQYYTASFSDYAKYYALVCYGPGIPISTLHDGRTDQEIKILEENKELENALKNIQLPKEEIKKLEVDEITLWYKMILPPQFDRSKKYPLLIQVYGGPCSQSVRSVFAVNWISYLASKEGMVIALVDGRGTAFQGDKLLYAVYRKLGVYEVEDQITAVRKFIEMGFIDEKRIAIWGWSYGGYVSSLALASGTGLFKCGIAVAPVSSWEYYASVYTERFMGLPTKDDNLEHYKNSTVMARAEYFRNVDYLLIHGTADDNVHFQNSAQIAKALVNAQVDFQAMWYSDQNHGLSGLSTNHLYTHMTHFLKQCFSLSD

T2: human FAP-ECD (extracellular domain) recombinant fragment containing a C-terminal His6 tag (human, UniProt Q12884 26-760, randomly biotinylated with NHS ester-activated biotin (as used on the SA chip and Streptawell plates))
T2 construct: also called biotinylated human FAP-ECD; biotinylated human FAP
T2 sequence: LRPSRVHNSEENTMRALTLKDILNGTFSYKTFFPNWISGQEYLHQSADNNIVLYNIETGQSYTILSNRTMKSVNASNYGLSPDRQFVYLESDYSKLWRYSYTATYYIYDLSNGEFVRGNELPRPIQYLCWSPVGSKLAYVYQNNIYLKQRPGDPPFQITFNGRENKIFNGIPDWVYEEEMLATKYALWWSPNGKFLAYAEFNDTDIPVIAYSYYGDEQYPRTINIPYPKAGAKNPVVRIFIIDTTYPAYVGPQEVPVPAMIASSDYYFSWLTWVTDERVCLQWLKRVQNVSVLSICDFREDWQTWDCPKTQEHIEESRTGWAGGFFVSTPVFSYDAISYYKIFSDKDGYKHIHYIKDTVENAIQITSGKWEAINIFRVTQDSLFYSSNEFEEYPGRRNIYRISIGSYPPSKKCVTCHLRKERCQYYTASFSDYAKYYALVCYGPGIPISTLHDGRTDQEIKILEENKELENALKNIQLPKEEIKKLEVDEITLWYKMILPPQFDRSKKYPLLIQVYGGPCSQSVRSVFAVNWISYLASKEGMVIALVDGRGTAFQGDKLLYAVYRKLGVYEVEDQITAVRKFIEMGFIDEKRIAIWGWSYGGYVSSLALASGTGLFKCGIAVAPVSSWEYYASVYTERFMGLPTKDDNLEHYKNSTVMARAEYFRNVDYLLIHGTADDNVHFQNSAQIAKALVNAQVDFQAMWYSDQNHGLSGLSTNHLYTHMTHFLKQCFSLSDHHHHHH

B1: anti-FAP antibody 7NP2 in SIP (small immunoprotein) format (other)
chain: EVQLLESGGGLVQPGGSLRLSCAASGFTFSSYAMSWVRQAPGKGLEWVSAIGSVGGPTYYADSVKGRFTISRDNSKNTLYLQMNSLRAEDTAVYYCAKRLAWFDYWGQGTLVTVSSGGGGSGGGGSGGGGEIVLTQSPGTLSLSPGERATLSCRASQSVSSSYLAWYQQKPGQAPRLLIYGASSRATGIPDRFSGSGSGTDFTLTISRLEPEDFAVYYCQQSGKGPLTFGQGTKVEIKSGGSGGPRAAPEVYAFATPEWPGSRDKRTLACLIQNFMPEDISVQWLHNEVQLPDARHSTTQPRKTKGSGFFVFSRLEVTRAEWEQKDEFICRAVHEAASPSQTVQRAVSVNPESSRRGGC
notes: Homodimeric mini-immunoglobulin: 77 kDa under non-reducing and 38 kDa under reducing conditions; also called 7NP2 SIP; 7NP2(SIP)
B2: affinity-matured anti-FAP antibody 7NP2 in scFv format (scFv)
scFv: EVQLLESGGGLVQPGGSLRLSCAASGFTFSSYAMSWVRQAPGKGLEWVSAIGSVGGPTYYADSVKGRFTISRDNSKNTLYLQMNSLRAEDTAVYYCAKRLAWFDYWGQGTLVTVSSGGGGSGGGGSGGGGEIVLTQSPGTLSLSPGERATLSCRASQSVSSSYLAWYQQKPGQAPRLLIYGASSRATGIPDRFSGSGSGTDFTLTISRLEPEDFAVYYCQQSGKGPLTFGQGTKVEIK
notes: The monomeric scFv was used in BIAcore; also called 7NP2 scFv; scFv(7NP2)

Legend:
[1] = biological target: T1, human FAP expressed on transduced cells …; assay: flow cytometry on HT-1080-hFAP and SKRC52-hFAP cells against wild-type cells
Procedure: The cell lines used were the human renal cell carcinoma cell line SKRC52 and the human fibrosarcoma cell line HT-1080.
Specifically, SKRC52-hFAP, SKRC52 wild-type (wt), HT-1080-hFAP and HT-1080 wt cells were detached from cell culture plates using Accutase, counted and suspended to a final concentration of 1×10⁶ cells/mL in FACS buffer (0.5% BSA, 2 mM EDTA in PBS). Cells were incubated with the 7NP2 or KSF antibodies in SIP format and binding detected using an […] (25 μg/ml), followed by staining with the anti-rat AlexaFluor488 antibody. Cells were analyzed on a CytoFLEX cytometer (Beckman Coulter). The raw data were processed using the FlowJo 10.4 software.

[2] = biological target: T2, human FAP-ECD (extracellular domain) …; assay: SPR, BIAcore X100, biotinylated human FAP-ECD on SA chip (1500 RU), monomeric scFv injected
Procedure: Affinity measurements of the C5 and 7NP2 scFv antibodies were performed by Surface Plasmon Resonance using BIAcore X100 instrument with a biotinylated human FAP-ECD coated SA chip. A final coating of 1500 RU was achieved.
Samples were injected at a concentration of […], 450 nM and 225 nM for the C5 scFv and of 1350 nM, 675 nM, 338 nM and 170 nM for the 7NP2 scFv. No regeneration of the SA chip was performed between each run, scFvs were left to detach from the antigen. KD measurements were assessed using the BIAevaluation 3.2 software.

| Binder | binding result [1] | Kd [2] |
| --- | --- | --- |
| B1 | binds |  |
| B2 |  | 10 nM |
